Here are results for 3 molecules from patent publication US20180222982A1 (Novartis, published 2018).

Assay [1] deals with T1, human PD-1 expressed on cells (human, UniProt Q15116 25-288). The assay is described as follows: cell-based or functional assay.
In assay [2] the target is T1, human PD-1 expressed on cells. The assay is described as follows: FACS blocking of PD-L1-Ig binding to PD-1-expressing 300.19 cells.
In assay [3] the target is T2, human PD-1-Ig fusion protein (human, UniProt Q15116 25-167).
T2 construct: not shown: Ig part of the fusion protein
The assay is described as follows: ELISA on human PD-1-Ig fusion protein.

Assay [4] has as its target T1, human PD-1 expressed on cells. The assay is described as follows: FACS on human PD-1 transfected Jurkat cells.
The target is the same in assay [5]. The assay is described as follows: competition binding assay; blocks PD-L2 binding to human PD-1-expressing 300.19 cells.
The target of assay [6] is T3, cynomolgus PD-1 expressed on cells (cynomolgus).
T3 construct: whole, on cells; also called cells transfected with cynomolgus PD-1
The assay is described as follows: FACS on cells transfected with cynomolgus PD-1.

For assay [7], the target named is T3, cynomolgus PD-1 expressed on cells. The experiment in a line: FACS on cynomolgus T cells (e.g., CD3/CD28 activated CD4 T cells).
The target of assay [8] is T1, human PD-1 expressed on cells. The experiment in a line: competition binding assay; blocks PD-L1 binding to human PD-1-expressing 300.19 cells.

Changes are numbered by the printed parent chain. Numbers in names are those of the source.

The term Kd denotes the free concentration of one partner at which half of the binding sites on the other are occupied at equilibrium, for simple one-to-one binding. A word on the IC50: it is the concentration that inhibits the measured activity by half. Read a low IC50 as greater potency.

T1 sequence (Q15116 25-288): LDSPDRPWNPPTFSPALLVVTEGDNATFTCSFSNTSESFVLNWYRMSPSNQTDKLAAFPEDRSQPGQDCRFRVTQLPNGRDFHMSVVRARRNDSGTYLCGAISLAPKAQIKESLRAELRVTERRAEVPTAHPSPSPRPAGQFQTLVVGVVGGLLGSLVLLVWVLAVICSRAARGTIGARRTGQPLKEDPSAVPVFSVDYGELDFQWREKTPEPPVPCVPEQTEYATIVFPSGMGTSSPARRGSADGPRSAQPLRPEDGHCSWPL
T2 sequence (Q15116 25-167): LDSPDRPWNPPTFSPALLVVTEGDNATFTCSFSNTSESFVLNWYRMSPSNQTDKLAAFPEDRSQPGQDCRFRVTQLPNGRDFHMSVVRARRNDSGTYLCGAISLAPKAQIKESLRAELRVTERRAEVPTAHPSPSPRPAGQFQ

B1: humanized anti-PD-1 antibody BAP049-Clone-E (antibody, human IgG4 S228P, kappa)
heavy: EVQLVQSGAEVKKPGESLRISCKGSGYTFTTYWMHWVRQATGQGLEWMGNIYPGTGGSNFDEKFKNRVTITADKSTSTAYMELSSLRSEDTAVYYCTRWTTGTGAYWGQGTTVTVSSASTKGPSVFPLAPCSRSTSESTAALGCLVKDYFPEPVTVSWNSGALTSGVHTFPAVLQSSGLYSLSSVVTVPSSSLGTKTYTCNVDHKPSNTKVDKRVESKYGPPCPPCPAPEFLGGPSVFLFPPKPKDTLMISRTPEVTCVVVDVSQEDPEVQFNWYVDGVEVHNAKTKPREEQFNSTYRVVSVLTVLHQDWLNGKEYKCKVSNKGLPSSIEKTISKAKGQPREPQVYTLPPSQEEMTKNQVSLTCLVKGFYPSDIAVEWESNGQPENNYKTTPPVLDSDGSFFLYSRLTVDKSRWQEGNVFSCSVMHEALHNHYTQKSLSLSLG
light: EIVLTQSPATLSLSPGERATLSCKSSQSLLDSGNQKNFLTWYQQKPGQAPRLLIYWASTRESGVPSRFSGSGSGTDFTFTISSLEAEDAATYYCQNDYSYPYTFGQGTKVEIKRTVAAPSVFIFPPSDEQLKSGTASVVCLLNNFYPREAKVQWKVDNALQSGNSQESVTEQDSKDSTYSLSSTLTLSKADYEKHKVYACEVTHQGLSSPVTKSFNRGEC
Regarding B1, the “ex vivo EC50 for PD-1 blockade” value in assay [1] turned out to be 0.42 µg/mL.

B2: humanized anti-PD-1 antibody BAP049-hum09 (antibody, human IgG4 S228P, kappa)
heavy: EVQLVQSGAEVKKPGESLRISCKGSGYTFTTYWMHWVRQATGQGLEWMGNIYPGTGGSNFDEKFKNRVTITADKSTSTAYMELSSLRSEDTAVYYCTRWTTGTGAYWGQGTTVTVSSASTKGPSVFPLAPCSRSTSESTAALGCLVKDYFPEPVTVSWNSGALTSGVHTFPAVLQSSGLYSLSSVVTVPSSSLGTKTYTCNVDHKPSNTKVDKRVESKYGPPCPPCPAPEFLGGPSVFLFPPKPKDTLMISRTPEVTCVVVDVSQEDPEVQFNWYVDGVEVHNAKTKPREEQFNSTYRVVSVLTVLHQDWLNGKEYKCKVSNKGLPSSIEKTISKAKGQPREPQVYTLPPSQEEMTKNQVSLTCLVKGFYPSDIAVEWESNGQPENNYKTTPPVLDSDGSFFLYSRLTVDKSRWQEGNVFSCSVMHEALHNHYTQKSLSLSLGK
light: B1 light with A9D, T10F, L11Q, L13V, S14T, G16K, R18K, A19V, L21I, S22T
notes: Whole IgG4(S228P)/kappa; tested as concentrated supernatant of transiently transfected CHO cells; also called Clone No. 09
In the case of B2, in assay [2], the “IC50 (read off the curve)” value was roughly 1 µg/mL.

B3: murine anti-PD-1 monoclonal antibody BAP049 (antibody, V domains shown)
VH: QVQLQQSGSELVRPGASVKLSCKASGYTFTTYWMHWVRQRPGQGLEWIGNIYPGTGGSNFDEKFKNRTSLTVDTSSTTAYMHLASLTSEDSAVYYCTRWTTGTGAYWGQGTLVTVSA
VL: DIVMTQSPSSLTVTAGEKVTMSCKSSQSLLDSGNQKNFLTWYQQKPGQPPKLLIFWASTRESGVPDRFTGSGSVTDFTLTISSVQAEDLAVYYCQNDYSYPCTFGGGTKLEIK
notes: the murine constant regions are not; also called Mu mAb; murine mAb BAP049
B3: the Kd worked out at 0.04 nM in assay [3], 0.06 nM in assay [4], 0.6 nM in assay [6] and 0.4 nM in assay [7]. For the same molecule, the IC50 in assay [5] worked out at 0.9 nM; in assay [8], 0.3 nM.
